Where a chain is given by its changes, count along the chain named.
B1: humanized anti-GPC1 monoclonal antibody clone T1 (antibody, human IgG4 S228P, kappa, V domains shown)
VH: QVQLVQSGAEVKKPGASVKVSCKASGYTFTGYYMHWVRQAPGQGLEWMGEINPSTGDTTYNQKFKARVTMTRDTSTSTVYMELSSLRSEDTAVYYCAREKRDDGVFAYWGQGTLVTVSS
VL: DIVMTQSPSFLSASVGDRVTITCRASQGISSYLVWYQQKPGKAPKLLIYSASVLQSGVPSRFSGRGYGTDFTLTISSLQPEDFATYYCQQSFSIPPVTFGGGTKVEIKR
notes: IgG
B2: humanized anti-GPC1 monoclonal antibody clone T28 (antibody, human IgG4 S228P, kappa, V domains shown)
VH: B1 VH
VL: DIQMTQSPSSLSASLGEMVTITCRASESIHSYLNWYQQKPGKAPNLLIYDASNLESGVPSRFSGSGYGTDFTLTISSLQPEDFATYYCQQSYGPPITFGQGTRLEIKR
notes: IgG
B3: humanized anti-GPC1 monoclonal antibody clone T59 (antibody, human IgG4 S228P, kappa, V domains shown)
VH: B1 VH
VL: EIVMTQSPSSLSASVGDRVTITCQASQHISNKLNWYQQKPGKAPKLLIYDASNLETGVPSRFSGSGYGTDFTFTVSSLQPEDIATYYCQQYDNLPITFGQGTRLEIKR
notes: IgG
B4: humanized anti-GPC1 monoclonal antibody clone T32 (antibody, human IgG4 S228P, kappa, V domains shown)
VH: B1 VH
VL: DVVMTQSPGTLSLSPGERATLSCSASQSVSSNLAWYQQKPGQAPRLLIYGTSSRATGVPARFSGSGSGTEFTLTISSLQSEDFAAYYCQQYNSWPLTFGGGTKVEIKR
notes: IgG
B5: humanized anti-GPC1 monoclonal antibody clone T22 (antibody, human IgG4 S228P, kappa, V domains shown)
VH: B1 VH
VL: AIQMTQSPASLSASLGDRITITCRTSQTVAGYLNWYQQTPGNAPKLLIYSASNLQSGVPSRFSGSGSGRDFSLTISSLQSEDSATYYCQHSYSTPYTFGQGTKVEIKR
notes: IgG
B6: humanized anti-GPC1 monoclonal antibody clone T33 (antibody, human IgG4 S228P, kappa, V domains shown)
VH: B1 VH
VL: DVVMTQSPATLSVPPGDRATLSCRASQSVSSRLAWYQQKPGQAPKLLIYGASTRATGIPARFSGSWSGTEFTLTVSSLQSEDSAVYYCQQYNDWPRYTFGQGTKLEIKR
notes: IgG
B7: humanized anti-GPC1 monoclonal antibody clone T7 (antibody, human IgG4 S228P, kappa, V domains shown)
VH: B1 VH
VL: AIQLTQSPSTLSASVGDRVTITCRASQSISSWLAWYQQKPGKAPKLLISDASNLASGVPLRFSGSGFGTHFTLTIDNLQPEDIATYSCQQYNNYPFTFGLGTKLEIKR
notes: IgG
B8: humanized anti-GPC1 monoclonal antibody clone T43 (antibody, human IgG4 S228P, kappa, V domains shown)
VH: B1 VH
VL: DIVMTQSPSSLSASVGDRVTITCRASQGIRSALAWYQQKPGKAPKLLIYDASNLQSGVPSRFSGSGSGTDFTLTISDVQAEDFGTYYCQQSFGPPRTFGQGTRLEIKR
notes: IgG
B9: humanized anti-GPC1 monoclonal antibody clone T57 (antibody, human IgG4 S228P, kappa, V domains shown)
VH: B1 VH
VL: EIVMTQSPSSLSASVGDRVTISCRTSQTIRHYLNWYQQKPGKAPKLLIYDASNLKTGVPSRFSGSGSGTSFTLTISSLQPDDFATYYCQQSYSTPRTFGQGTKVEIKR
notes: IgG
B10: humanized anti-GPC1 monoclonal antibody clone T8 (antibody, human IgG4 S228P, kappa, V domains shown)
VH: B1 VH
VL: EIVMTQSPSSVSASVGDRVTITCRTSQSISSYLNWYQLRPGRAPKLLIYAASNLQSGVPSRFSGSGFGTDFTLTISSVQPEDFATYYCQQAKSYPLTFGGGTKVDIKR
notes: IgG
B11: humanized anti-GPC1 monoclonal antibody clone T56 (antibody, human IgG4 S228P, kappa, V domains shown)
VH: B1 VH
VL: DIVMTQSPSTLSASVGDRVTIICRASQSIGPWLAWYQQKSGKAPKLLIYGASNLQSGVPSRFSGSGYGTDFTLTISSLQPEDFATYYCQQTSSAPFTFGPGTKVDIKR
notes: IgG
B12: humanized anti-GPC1 monoclonal antibody clone T26 (antibody, human IgG4 S228P, kappa, V domains shown)
VH: B1 VH
VL: DVVMTQSPSSLSASVGERVTITCRASQSISSYLNWYQQKPGKAPKLLIYAASSRATGIPHRYSGSGSGTVFTLTISRLEPEDFATYYCQQFHSYPITFGQGTRLEIKR
B13: humanized anti-GPC1 monoclonal antibody clone T11 (antibody, human IgG4 S228P, kappa, V domains shown)
VH: B1 VH
VL: AIRMTQSPSSLSASVGDRVTITCRASRSISTYLHWYQQKAGKAPKLLIYSAYNLQSGVPSRFSGSGSGTDFTLTISSLQPEDFATYYCQQSYSTPYTFGQGTKVEIKR
notes: IgG
B14: humanized anti-GPC1 monoclonal antibody clone T3 (antibody, human IgG4 S228P, kappa, V domains shown)
VH: B1 VH
VL: DIVMTQSPSSVSASVGDRVSITCRASEHINGWLAWYQQIPGKAPRILISSASILQSGAPSRFSGSGFGTDFTLTISSVQPEDFATYYCQQAKSYPLTFGGGTKVEIKR
notes: IgG
B15: humanized anti-GPC1 monoclonal antibody clone T31 (antibody, human IgG4 S228P, kappa, V domains shown)
VH: B1 VH
VL: AIQMTQSPATLSLSPGQRATLSCRASQSVSNYLAWYQQKPGQAPRLLIYDVSNRASGIPARFSGSGSGTDFTLTISSLEPEDFAIYYCQQRSNWPLTFGQGTKVDIKR
notes: IgG
B16: humanized anti-GPC1 monoclonal antibody clone T36 (antibody, human IgG4 S228P, kappa, V domains shown)
VH: B1 VH
VL: NIQMTQSPSSLSASVGDRVTITCQASQDISNYLNWYQQRPGKAPQLLIYGASNLERGVPSRFSGSGFGTDFTLTISSVQPEDFATYYCQQAKSYPLTFGGGTKVEIKR
notes: IgG
B17: humanized anti-GPC1 monoclonal antibody clone T29 (antibody, human IgG4 S228P, kappa, V domains shown)
VH: B1 VH
VL: DIVMTQSPSSLSASVGDRVTITCRASQDISSYLNWYQQKPGEAPKLLVYGASNLQRGVPPGFRGSGSGTDFTLTINNLQPEDFATYYCQQSSTSPITFGQGTRLEIKR
notes: IgG
B18: humanized anti-GPC1 monoclonal antibody clone T10 (antibody, human IgG4 S228P, kappa, V domains shown)
VH: B1 VH
VL: B14 VL with D1E, M4L, S10T, V11L, S20T, E27Q, H28S, N30S, G31S, V104L
notes: IgG
B19: humanized anti-GPC1 monoclonal antibody clone T34 (antibody, human IgG4 S228P, kappa, V domains shown)
VH: B1 VH
VL: B14 VL with D1V, V3W, S20T, E27Q, H28A, I39K, S49Y, I53T, S56T
notes: IgG

target: T1, human GPC1 on the surface of GPC1-positive cancer cells (TE8, TE14, BxPC-3) (human, UniProt P35052 24-530); experiment: cell-based or functional assay
T1 sequence: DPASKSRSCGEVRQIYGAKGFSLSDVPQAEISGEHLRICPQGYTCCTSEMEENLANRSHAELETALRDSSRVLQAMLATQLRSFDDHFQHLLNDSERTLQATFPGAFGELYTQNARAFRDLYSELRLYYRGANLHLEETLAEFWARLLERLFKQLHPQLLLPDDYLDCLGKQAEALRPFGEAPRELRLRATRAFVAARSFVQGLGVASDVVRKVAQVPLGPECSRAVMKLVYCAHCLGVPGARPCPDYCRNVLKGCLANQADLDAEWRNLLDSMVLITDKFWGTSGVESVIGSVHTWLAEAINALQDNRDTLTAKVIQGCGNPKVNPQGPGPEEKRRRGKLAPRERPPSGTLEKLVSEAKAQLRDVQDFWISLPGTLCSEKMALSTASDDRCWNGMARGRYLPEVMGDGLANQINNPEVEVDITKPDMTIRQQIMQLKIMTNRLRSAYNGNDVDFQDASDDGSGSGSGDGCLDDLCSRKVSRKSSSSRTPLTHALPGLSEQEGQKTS

Row | Binder | IC50 of cytotoxicity on TE14 cells (ATP cell viability, 144 h) with MMAF-linked anti-human-IgG Fab as secondary antibody [nM]
1 | B1 | 0.0399
2 | B2 | 0.153
3 | B3 | 0.37
4 | B4 | 0.888
5 | B5 | 0.745
6 | B6 | 1.86
7 | B7 | 0.0365
8 | B8 | 0.37
9 | B9 | 0.0459
10 | B10 | 0.0379
11 | B11 | 0.0501
12 | B12 | 0.803
13 | B13 | 0.121
14 | B14 | 0.0526
15 | B15 | 0.688
16 | B16 | 0.0459
17 | B17 | 2.18
18 | B18 | 0.0488
19 | B19 | 0.0501

target: T2, recombinant human GPC1 protein (R&D Systems) (human, UniProt P35052 24-530); experiment: SPR (Biacore 8K); antibody captured by anti-human IgG (Fc) on a CM5 chip, recombinant human GPC1 flowed over
T2 construct: Bought recombinant protein (R&D Systems); also called human GPC-1 antigen; Glypican-1
T2 sequence: T1 sequence
Description: The mouse anti-human-GPC1 monoclonal antibody was humanized (subclass: IgG4), and the obtained twenty clones (T1, T2, T3, T7, T8, T10, T11, T22, T26, T28, T29, T31, T32, T33, T34, T36, T43, T56, T57, T59) were prepared. An anti-human IgG (Fc) was immobilized on an sCM5 sensor chip (GE Healthcare) using Human antibody capture kit (GE Healthcare), and the affinity of each of these clones to a recombinant human GPC1 protein (R&D Systems) was measured using Biacore (registered trademark) 8K (GE Healthcare).

Row | Kd [nM] | koff [s⁻¹] | kon [M⁻¹ s⁻¹] | Binder
20 | 5.62 | 0.00134 | 238000 | B1
21 | 21.7 | 0.00679 | 313000 | B2
22 | 302 | 0.0593 | 197000 | B3
23 | 290 | 0.0603 | 208000 | B4
24 | 218 | 0.0506 | 232000 | B5
25 | 462 | 0.0738 | 160000 | B6
26 | 12 | 0.00411 | 343000 | B7
27 | 62.4 | 0.0106 | 169000 | B8
28 | 102 | 0.0135 | 132000 | B9
29 | 5.07 | 0.00118 | 234000 | B10
30 | 6.93 | 0.0018 | 259000 | B11
31 | 272 | 0.0506 | 186000 | B13
32 | 3.11 | 0.000713 | 229000 | B14
33 | 271 | 0.0539 | 198000 | B15
34 | 9.8 | 0.00227 | 231000 | B16
35 | 324 | 0.0664 | 205000 | B17
36 | 7.55 | 0.0015 | 199000 | B18
37 | 22.8 | 0.00393 | 172000 | B19

— patent US20230250188A1 (NATIONAL UNIVERSITY CORPORATION KOCHI UNIVERSITY, published 2023)
